Results published in the RNAGym collection of RNA variant scans (doi:10.1021/acssynbio.7b00057).

B1: Pistol ribozyme (parent)
chain: GGGUCGUUGUUCCAUAAUCGCGUGGAUAUGGCACGCAAGUUUCUACCGGGCACCGUAAAUGUCCGACUGGAGCCGUUCGGGCGGCUAUAAACAGACCUCAGGCCCGAAGCGUGGCGGCACCUGCCGCCGGUGGUAAAAAAGAUCGGAAGAGCACACGUCU

Variants of: B1
Assay: aptazyme ON/OFF ratio, guanine; higher = stronger switching; co-transcriptional cleavage with and without guanine

Variant	aptazyme ON/OFF ratio
GGGUCGGAACGACAUAAUCGCGUGGAUAUGGCACGCAAGUUUCUACCGGGCACCGUAAAUGUCCGACUGGAGCCGUUCGGGCGGCUAUAAACAGACCUCAGGCCCGAAGCGUGGCGGCACCUGCCGCCGGUGGUAAAAAAGAUCGGAAGAGCACACGUCU [U7G U8A G9A U10C U11G C12A]	1.04
GGGUCGGAACGGCAUAAUCGCGUGGAUAUGGCACGCAAGUUUCUACCGGGCACCGUAAAUGUCCGACUGGAGCCGUUCGGGCGGCUAUAAACAGACCUCAGGCCCGAAGCGUGGCGGCACCUGCCGCCGGUGGUAAAAAAGAUCGGAAGAGCACACGUCU [U7G U8A G9A U10C U11G C12G]	1.32
GGGUCGGAACGGAAUAAUCGCGUGGAUAUGGCACGCAAGUUUCUACCGGGCACCGUAAAUGUCCGACUGGAGCCGUUCGGGCGGCUAUAAACAGACCUCAGGCCCGAAGCGUGGCGGCACCUGCCGCCGGUGGUAAAAAAGAUCGGAAGAGCACACGUCU [U7G U8A G9A U10C U11G C12G C13A]	1.2
GGGUCGGAACGGGAUAAUCGCGUGGAUAUGGCACGCAAGUUUCUACCGGGCACCGUAAAUGUCCGACUGGAGCCGUUCGGGCGGCUAUAAACAGACCUCAGGCCCGAAGCGUGGCGGCACCUGCCGCCGGUGGUAAAAAAGAUCGGAAGAGCACACGUCU [U7G U8A G9A U10C U11G C12G C13G]	1.19
GGGUCGGAACGGUAUAAUCGCGUGGAUAUGGCACGCAAGUUUCUACCGGGCACCGUAAAUGUCCGACUGGAGCCGUUCGGGCGGCUAUAAACAGACCUCAGGCCCGAAGCGUGGCGGCACCUGCCGCCGGUGGUAAAAAAGAUCGGAAGAGCACACGUCU [U7G U8A G9A U10C U11G C12G C13U]	1.08
GGGUCGGAACAGUAUAAUCGCGUGGAUAUGGCACGCAAGUUUCUACCGGGCACCGUAAAUGUCCGACUGGAGCCGUUCGGGCGGCUAUAAACAGACCUCAGGCCCGAAGCGUGGCGGCACCUGCCGCCGGUGGUAAAAAAGAUCGGAAGAGCACACGUCU [U7G U8A G9A U10C U11A C12G C13U]	1.12
GGGUCGGAACAGGAUAAUCGCGUGGAUAUGGCACGCAAGUUUCUACCGGGCACCGUAAAUGUCCGACUGGAGCCGUUCGGGCGGCUAUAAACAGACCUCAGGCCCGAAGCGUGGCGGCACCUGCCGCCGGUGGUAAAAAAGAUCGGAAGAGCACACGUCU [U7G U8A G9A U10C U11A C12G C13G]	1.07
GGGUCGGAACAGAAUAAUCGCGUGGAUAUGGCACGCAAGUUUCUACCGGGCACCGUAAAUGUCCGACUGGAGCCGUUCGGGCGGCUAUAAACAGACCUCAGGCCCGAAGCGUGGCGGCACCUGCCGCCGGUGGUAAAAAAGAUCGGAAGAGCACACGUCU [U7G U8A G9A U10C U11A C12G C13A]	1.11
GGGUCGGAACAUCAUAAUCGCGUGGAUAUGGCACGCAAGUUUCUACCGGGCACCGUAAAUGUCCGACUGGAGCCGUUCGGGCGGCUAUAAACAGACCUCAGGCCCGAAGCGUGGCGGCACCUGCCGCCGGUGGUAAAAAAGAUCGGAAGAGCACACGUCU [U7G U8A G9A U10C U11A C12U]	1.08
GGGUCGGAACAGCAUAAUCGCGUGGAUAUGGCACGCAAGUUUCUACCGGGCACCGUAAAUGUCCGACUGGAGCCGUUCGGGCGGCUAUAAACAGACCUCAGGCCCGAAGCGUGGCGGCACCUGCCGCCGGUGGUAAAAAAGAUCGGAAGAGCACACGUCU [U7G U8A G9A U10C U11A C12G]	1.15
GGGUCGGAACCACAUAAUCGCGUGGAUAUGGCACGCAAGUUUCUACCGGGCACCGUAAAUGUCCGACUGGAGCCGUUCGGGCGGCUAUAAACAGACCUCAGGCCCGAAGCGUGGCGGCACCUGCCGCCGGUGGUAAAAAAGAUCGGAAGAGCACACGUCU [U7G U8A G9A U10C U11C C12A]	1.11
GGGUCGGAACCUCAUAAUCGCGUGGAUAUGGCACGCAAGUUUCUACCGGGCACCGUAAAUGUCCGACUGGAGCCGUUCGGGCGGCUAUAAACAGACCUCAGGCCCGAAGCGUGGCGGCACCUGCCGCCGGUGGUAAAAAAGAUCGGAAGAGCACACGUCU [U7G U8A G9A U10C U11C C12U]	1.06
GGGUCGGAACCGCAUAAUCGCGUGGAUAUGGCACGCAAGUUUCUACCGGGCACCGUAAAUGUCCGACUGGAGCCGUUCGGGCGGCUAUAAACAGACCUCAGGCCCGAAGCGUGGCGGCACCUGCCGCCGGUGGUAAAAAAGAUCGGAAGAGCACACGUCU [U7G U8A G9A U10C U11C C12G]	1.09
GGGUCGGAACCCAAUAAUCGCGUGGAUAUGGCACGCAAGUUUCUACCGGGCACCGUAAAUGUCCGACUGGAGCCGUUCGGGCGGCUAUAAACAGACCUCAGGCCCGAAGCGUGGCGGCACCUGCCGCCGGUGGUAAAAAAGAUCGGAAGAGCACACGUCU [U7G U8A G9A U10C U11C C13A]	1.04
GGGUCGGAACCCGAUAAUCGCGUGGAUAUGGCACGCAAGUUUCUACCGGGCACCGUAAAUGUCCGACUGGAGCCGUUCGGGCGGCUAUAAACAGACCUCAGGCCCGAAGCGUGGCGGCACCUGCCGCCGGUGGUAAAAAAGAUCGGAAGAGCACACGUCU [U7G U8A G9A U10C U11C C13G]	1.02
GGGUCGGAACCCUAUAAUCGCGUGGAUAUGGCACGCAAGUUUCUACCGGGCACCGUAAAUGUCCGACUGGAGCCGUUCGGGCGGCUAUAAACAGACCUCAGGCCCGAAGCGUGGCGGCACCUGCCGCCGGUGGUAAAAAAGAUCGGAAGAGCACACGUCU [U7G U8A G9A U10C U11C C13U]	1.03
GGGUCGGAACACUAUAAUCGCGUGGAUAUGGCACGCAAGUUUCUACCGGGCACCGUAAAUGUCCGACUGGAGCCGUUCGGGCGGCUAUAAACAGACCUCAGGCCCGAAGCGUGGCGGCACCUGCCGCCGGUGGUAAAAAAGAUCGGAAGAGCACACGUCU [U7G U8A G9A U10C U11A C13U]	1.12
GGGUCGGAACACGAUAAUCGCGUGGAUAUGGCACGCAAGUUUCUACCGGGCACCGUAAAUGUCCGACUGGAGCCGUUCGGGCGGCUAUAAACAGACCUCAGGCCCGAAGCGUGGCGGCACCUGCCGCCGGUGGUAAAAAAGAUCGGAAGAGCACACGUCU [U7G U8A G9A U10C U11A C13G]	1.07

Variant	aptazyme ON/OFF ratio
GGGUCGGAACACAAUAAUCGCGUGGAUAUGGCACGCAAGUUUCUACCGGGCACCGUAAAUGUCCGACUGGAGCCGUUCGGGCGGCUAUAAACAGACCUCAGGCCCGAAGCGUGGCGGCACCUGCCGCCGGUGGUAAAAAAGAUCGGAAGAGCACACGUCU [U7G U8A G9A U10C U11A C13A]	1.08
GGGUCGGAACCCCAUAAUCGCGUGGAUAUGGCACGCAAGUUUCUACCGGGCACCGUAAAUGUCCGACUGGAGCCGUUCGGGCGGCUAUAAACAGACCUCAGGCCCGAAGCGUGGCGGCACCUGCCGCCGGUGGUAAAAAAGAUCGGAAGAGCACACGUCU [U7G U8A G9A U10C U11C]	1.06
GGGUCGGAACGCCAUAAUCGCGUGGAUAUGGCACGCAAGUUUCUACCGGGCACCGUAAAUGUCCGACUGGAGCCGUUCGGGCGGCUAUAAACAGACCUCAGGCCCGAAGCGUGGCGGCACCUGCCGCCGGUGGUAAAAAAGAUCGGAAGAGCACACGUCU [U7G U8A G9A U10C U11G]	1.24
GGGUCGGAACCGGAUAAUCGCGUGGAUAUGGCACGCAAGUUUCUACCGGGCACCGUAAAUGUCCGACUGGAGCCGUUCGGGCGGCUAUAAACAGACCUCAGGCCCGAAGCGUGGCGGCACCUGCCGCCGGUGGUAAAAAAGAUCGGAAGAGCACACGUCU [U7G U8A G9A U10C U11C C12G C13G]	1.03
GGGUCGGAACCGAAUAAUCGCGUGGAUAUGGCACGCAAGUUUCUACCGGGCACCGUAAAUGUCCGACUGGAGCCGUUCGGGCGGCUAUAAACAGACCUCAGGCCCGAAGCGUGGCGGCACCUGCCGCCGGUGGUAAAAAAGAUCGGAAGAGCACACGUCU [U7G U8A G9A U10C U11C C12G C13A]	1.09
GGGUCGGAACCGUAUAAUCGCGUGGAUAUGGCACGCAAGUUUCUACCGGGCACCGUAAAUGUCCGACUGGAGCCGUUCGGGCGGCUAUAAACAGACCUCAGGCCCGAAGCGUGGCGGCACCUGCCGCCGGUGGUAAAAAAGAUCGGAAGAGCACACGUCU [U7G U8A G9A U10C U11C C12G C13U]	1.08
GGGUCGGAACGAAAUAAUCGCGUGGAUAUGGCACGCAAGUUUCUACCGGGCACCGUAAAUGUCCGACUGGAGCCGUUCGGGCGGCUAUAAACAGACCUCAGGCCCGAAGCGUGGCGGCACCUGCCGCCGGUGGUAAAAAAGAUCGGAAGAGCACACGUCU [U7G U8A G9A U10C U11G C12A C13A]	1.07
GGGUCGGAACGAUAUAAUCGCGUGGAUAUGGCACGCAAGUUUCUACCGGGCACCGUAAAUGUCCGACUGGAGCCGUUCGGGCGGCUAUAAACAGACCUCAGGCCCGAAGCGUGGCGGCACCUGCCGCCGGUGGUAAAAAAGAUCGGAAGAGCACACGUCU [U7G U8A G9A U10C U11G C12A C13U]	1.13
GGGUCGGAACGAGAUAAUCGCGUGGAUAUGGCACGCAAGUUUCUACCGGGCACCGUAAAUGUCCGACUGGAGCCGUUCGGGCGGCUAUAAACAGACCUCAGGCCCGAAGCGUGGCGGCACCUGCCGCCGGUGGUAAAAAAGAUCGGAAGAGCACACGUCU [U7G U8A G9A U10C U11G C12A C13G]	1.07
GGGUCGGAACAUUAUAAUCGCGUGGAUAUGGCACGCAAGUUUCUACCGGGCACCGUAAAUGUCCGACUGGAGCCGUUCGGGCGGCUAUAAACAGACCUCAGGCCCGAAGCGUGGCGGCACCUGCCGCCGGUGGUAAAAAAGAUCGGAAGAGCACACGUCU [U7G U8A G9A U10C U11A C12U C13U]	1.05
GGGUCGGAACAUAAUAAUCGCGUGGAUAUGGCACGCAAGUUUCUACCGGGCACCGUAAAUGUCCGACUGGAGCCGUUCGGGCGGCUAUAAACAGACCUCAGGCCCGAAGCGUGGCGGCACCUGCCGCCGGUGGUAAAAAAGAUCGGAAGAGCACACGUCU [U7G U8A G9A U10C U11A C12U C13A]	1.09
GGGUCGGAACAUGAUAAUCGCGUGGAUAUGGCACGCAAGUUUCUACCGGGCACCGUAAAUGUCCGACUGGAGCCGUUCGGGCGGCUAUAAACAGACCUCAGGCCCGAAGCGUGGCGGCACCUGCCGCCGGUGGUAAAAAAGAUCGGAAGAGCACACGUCU [U7G U8A G9A U10C U11A C12U C13G]	1.03
GGGUCGGAACCAGAUAAUCGCGUGGAUAUGGCACGCAAGUUUCUACCGGGCACCGUAAAUGUCCGACUGGAGCCGUUCGGGCGGCUAUAAACAGACCUCAGGCCCGAAGCGUGGCGGCACCUGCCGCCGGUGGUAAAAAAGAUCGGAAGAGCACACGUCU [U7G U8A G9A U10C U11C C12A C13G]	1.25
GGGUCGGAACCAUAUAAUCGCGUGGAUAUGGCACGCAAGUUUCUACCGGGCACCGUAAAUGUCCGACUGGAGCCGUUCGGGCGGCUAUAAACAGACCUCAGGCCCGAAGCGUGGCGGCACCUGCCGCCGGUGGUAAAAAAGAUCGGAAGAGCACACGUCU [U7G U8A G9A U10C U11C C12A C13U]	1.08
GGGUCGGAACCAAAUAAUCGCGUGGAUAUGGCACGCAAGUUUCUACCGGGCACCGUAAAUGUCCGACUGGAGCCGUUCGGGCGGCUAUAAACAGACCUCAGGCCCGAAGCGUGGCGGCACCUGCCGCCGGUGGUAAAAAAGAUCGGAAGAGCACACGUCU [U7G U8A G9A U10C U11C C12A C13A]	1.07
GGGUCGGAACCUUAUAAUCGCGUGGAUAUGGCACGCAAGUUUCUACCGGGCACCGUAAAUGUCCGACUGGAGCCGUUCGGGCGGCUAUAAACAGACCUCAGGCCCGAAGCGUGGCGGCACCUGCCGCCGGUGGUAAAAAAGAUCGGAAGAGCACACGUCU [U7G U8A G9A U10C U11C C12U C13U]	1.03
GGGUCGGAACCUAAUAAUCGCGUGGAUAUGGCACGCAAGUUUCUACCGGGCACCGUAAAUGUCCGACUGGAGCCGUUCGGGCGGCUAUAAACAGACCUCAGGCCCGAAGCGUGGCGGCACCUGCCGCCGGUGGUAAAAAAGAUCGGAAGAGCACACGUCU [U7G U8A G9A U10C U11C C12U C13A]	1.08
GGGUCGGAACCUGAUAAUCGCGUGGAUAUGGCACGCAAGUUUCUACCGGGCACCGUAAAUGUCCGACUGGAGCCGUUCGGGCGGCUAUAAACAGACCUCAGGCCCGAAGCGUGGCGGCACCUGCCGCCGGUGGUAAAAAAGAUCGGAAGAGCACACGUCU [U7G U8A G9A U10C U11C C12U C13G]	1.02
